Laboratory results from patent publication US20120219942, “Methods Employing McrA to Detect 5-Methyl Cytosine” (Brookhaven Science Associates, LLC, published 2012).

Assays:
[1] = target: T1, McrA (rMcrA-S, C-terminal StrepII) (Escherichia coli, UniProt P24200 P24200:1-277); test: EMSA; NEBuffer 3, 100 mM NaCl, 10 mM MgCl2, RT; settings: tags: C-terminal StrepII SAWSHPQFEK
T1 sequence: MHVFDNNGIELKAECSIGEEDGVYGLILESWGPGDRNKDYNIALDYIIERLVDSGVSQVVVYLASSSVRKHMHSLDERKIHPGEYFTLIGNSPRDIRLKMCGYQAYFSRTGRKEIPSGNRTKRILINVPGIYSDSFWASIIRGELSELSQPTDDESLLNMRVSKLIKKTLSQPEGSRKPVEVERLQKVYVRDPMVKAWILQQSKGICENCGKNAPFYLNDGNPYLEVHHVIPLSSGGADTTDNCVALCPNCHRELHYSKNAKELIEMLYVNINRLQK
Description: (§1) EMSA binding assays. Reactions (10 μl) typically contained a mixture of 10-25 pMol of various test DNAs, and 250 ng sonicated E. coli. ER2925DNA as a non-methylated, non-specific competitor in 50 mM Tris-HCl, 100 mM NaCl, 1 mM dithiothreitol, 10 mM MgCl₂ (NEBuffer #3), supplemented, with 100 μg/ml BSA. We started the reactions adding 25-175 pMol McrA-S; after 45 min at RT, the entire sample was loaded on 10% acrylamide Tris-Acetate/EDTA gel (1×TAE: 40 mM Tris-Acetate, 1 mM disodium EDTA) which was electrophoresed at RT. Thereafter, the gels were stained with ethidium bromide (0.5 μg/ml) at RT and visualized with UV light. Then, we stained the gels with Coomassie Blue to detect rMcrA-S.

[2] = target: T1, McrA (rMcrA-S, C-terminal StrepII); test: EMSA; high affinity; NEBuffer 3, RT; Mg independent; settings: tags: C-terminal StrepII SAWSHPQFEK
Description: as §1

[3] = target: T1, McrA (rMcrA-S, C-terminal StrepII); test: EMSA; NEBuffer 3, RT; settings: tags: C-terminal StrepII SAWSHPQFEK
Description: as §1

[4] = target: T1, McrA (rMcrA-S, C-terminal StrepII); test: EMSA; Ym5CGR somewhat higher affinity; settings: tags: C-terminal StrepII SAWSHPQFEK
Description: as §1

[5] = target: T1, McrA (rMcrA-S, C-terminal StrepII); test: EMSA; hemimethylated; settings: tags: C-terminal StrepII SAWSHPQFEK
Description: as §1
(§2) We next tested the ability of rMcrA-S to gel-shift ds-cassettes wherein an A, C, T, U, or I residue is placed opposite the m⁵C.

[6] = target: T1, McrA (rMcrA-S, C-terminal StrepII); test: EMSA; A opposite m5C; settings: tags: C-terminal StrepII SAWSHPQFEK; mismatch A opposite m5C
Description: as §1, §2

[7] = target: T1, McrA (rMcrA-S, C-terminal StrepII); test: EMSA; C opposite m5C; settings: tags: C-terminal StrepII SAWSHPQFEK; mismatch C opposite m5C
Description: as §1, §2

[8] = target: T1, McrA (rMcrA-S, C-terminal StrepII); test: EMSA; T opposite m5C; settings: tags: C-terminal StrepII SAWSHPQFEK; mismatch T opposite m5C
Description: as §1, §2

[9] = target: T1, McrA (rMcrA-S, C-terminal StrepII); test: EMSA; U opposite m5C; settings: tags: C-terminal StrepII SAWSHPQFEK; mismatch U opposite m5C
Description: as §1, §2

B1: three m5CpG cassette (dsDNA)
DNA 1: GCCTTCAGCGCCGGCGGATCCAGT
DNA 2: ACTGGATCCGCCGGCGCTGAAGGC
modifications: 5mC at positions 9, 12, 15 of both strands
B1: binds [1].

B2: Cm5CGG cassette (single methylated HpaII site) (dsDNA)
DNA 1: GCCTTCAGCGCCGGCGGATCCAGT
DNA 2: ACTGGATCCGCCGGCGCTGAAGGC
modifications: 5mC at position 12 of both strands
B2: binds [2].

B3: Gm5CGG cassette (dsDNA)
DNA 1: CCCTCTGGCGGAGGAGGCTCCTGC
DNA 2: GCAGGAGCCTCCTCCGCCAGAGGG
modifications: 5mC at CpG (M.SssI), top 9, bottom 15
B3: binds [3].

B4: Tm5CGA cassette (dsDNA)
DNA 1: CCCTCTGTCGAAGGAGGCTCCTGC
DNA 2: GCAGGAGCCTCCTTCGACAGAGGG
modifications: 5mC at CpG (M.SssI), top 9, bottom 15
B4: binds [4].

B5: Gm5CGA cassette (dsDNA)
DNA 1: CCCTCTGGCGAAGGAGGCTCCTGC
DNA 2: GCAGGAGCCTCCTTCGCCAGAGGG
modifications: 5mC at CpG (M.SssI), top 9, bottom 15
B5: binds [3].

B6: Cm5CGA cassette (dsDNA)
DNA 1: CCCTCTGCCGAAGGAGGCTCCTGC
DNA 2: GCAGGAGCCTCCTTCGGCAGAGGG
modifications: 5mC at CpG (M.SssI), top 9, bottom 15
B6: binds [4].

B7: hemimethylated Cm5CGG cassette (m5C/G) (dsDNA)
DNA 1: GCCTTCAGCGCCGGCGGATCCAGT
DNA 2: ACTGGATCCGCCGGCGCTGAAGGC
modifications: 5mC at position 12 of top strand only
B7: binds [5].

B8: m5C/A mismatch cassette (dsDNA)
DNA 1: GCCTTCAGCGCCGGCGGATCCAGT
DNA 2: ACTGGATCCGCCAGCGCTGAAGGC
modifications: 5mC at position 12 of top strand only
B8: no binding [6].

B9: m5C/C mismatch cassette (dsDNA)
DNA 1: GCCTTCAGCGCCGGCGGATCCAGT
DNA 2: ACTGGATCCGCCCGCGCTGAAGGC
modifications: 5mC at position 12 of top strand only
B9: no binding [7].

B10: m5C/T mismatch cassette (dsDNA)
DNA 1: GCCTTCAGCGCCGGCGGATCCAGT
DNA 2: ACTGGATCCGCCTGCGCTGAAGGC
modifications: 5mC at position 12 of top strand only
B10: no binding [8].

B11: m5C/U mismatch cassette (dsDNA)
DNA 1: GCCTTCAGCGCCGGCGGATCCAGT
DNA 2: ACTGGATCCGCCUGCGCTGAAGGC
modifications: 5mC at position 12 of top strand only; U in bottom strand opposite m5C
B11: no binding [9].

B12: Am5CGG cassette (dsDNA)
DNA 1: CCCTCTGACGGAGGAGGCTCCTGC
DNA 2: GCAGGAGCCTCCTCCGTCAGAGGG
modifications: 5mC at CpG (M.SssI), top 9, bottom 15
B12: binds [3].

B13: m5CGC cassette (dsDNA)
DNA 1: CCCTCTGACGCAGGAGGCTCCTGC
DNA 2: GCAGGAGCCTCCTGCGTCAGAGGG
modifications: 5mC at CpG (M.SssI), top 9, bottom 15
B13: no binding [3].

B14: Am5CGA cassette (dsDNA)
DNA 1: CCCTCTGACGAAGGAGGCTCCTGC
DNA 2: GCAGGAGCCTCCTTCGTCAGAGGG
modifications: 5mC at CpG (M.SssI), top 9, bottom 15
B14: binds [3].

B15: m5CGT cassette (dsDNA)
DNA 1: CCCTCTGACGTAGGAGGCTCCTGC
DNA 2: GCAGGAGCCTCCTACGTCAGAGGG
modifications: 5mC at CpG (M.SssI), top 9, bottom 15
B15: no binding [3].

B16: Cm5CGG cassette (M.SssI) (dsDNA)
DNA 1: CCCTCTGCCGGAGGAGGATCCTGC
DNA 2: GCAGGATCCTCCTCCGGCAGAGGG
modifications: 5mC at CpG (M.SssI), top 9, bottom 15
B16: binds [4].

B17: Tm5CGG cassette (dsDNA)
DNA 1: CCCTCTGTCGGAGGAGGCTCCTGC
DNA 2: GCAGGAGCCTCCTCCGACAGAGGG
modifications: 5mC at CpG (M.SssI), top 9, bottom 15
B17: binds [4].
